Where a chain is given by its changes, count along the chain named. Numbers in names are those of the source.
T1: human FcγRIIa(H) (human, UniProt P12318 36-217)
T1 construct: also called hFcgRIIa(H); FcγRIIa type H
T1 sequence: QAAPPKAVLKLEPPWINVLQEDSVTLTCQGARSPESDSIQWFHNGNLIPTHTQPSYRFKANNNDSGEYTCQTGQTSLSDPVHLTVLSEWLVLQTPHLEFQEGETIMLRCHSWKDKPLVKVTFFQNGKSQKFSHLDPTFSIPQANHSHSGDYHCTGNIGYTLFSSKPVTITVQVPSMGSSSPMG

T2: human FcγRIIb (human, UniProt P31994 43-217, limits assumed)
T2 construct: also called hFcgRIIb; FcγIIB
T2 sequence: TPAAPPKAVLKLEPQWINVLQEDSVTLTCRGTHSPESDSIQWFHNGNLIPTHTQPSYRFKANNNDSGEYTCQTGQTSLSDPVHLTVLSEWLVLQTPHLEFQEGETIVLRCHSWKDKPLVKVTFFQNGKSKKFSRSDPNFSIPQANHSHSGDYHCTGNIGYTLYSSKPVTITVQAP

T3: human FcγRIIa(R) (human, UniProt P12318 36-217)
T3 construct: also called hFcgRIIa(R); FcγRIIa type R
T3 chain: T1 sequence with H133R

T4: human FcγRIIa(R) (human, UniProt P12318 36-217)
T4 construct: also called FcgRIIaR; hFcgRIIa(R)
T4 chain: T1 sequence with H133R

T5: human FcγRIIa(H) (human, UniProt P12318 36-217)
T5 construct: also called FcgRIIaH; hFcgRIIa(H)
T5 sequence: T1 sequence

T6: human FcγRIIb (human, UniProt P31994 43-217, limits assumed)
T6 construct: also called FcgRIIb; hFcgRIIb
T6 sequence: T2 sequence

T7: soluble human IL-6 receptor (human, UniProt P08887 20-357)
T7 construct: also called hsIL-6R
T7 sequence: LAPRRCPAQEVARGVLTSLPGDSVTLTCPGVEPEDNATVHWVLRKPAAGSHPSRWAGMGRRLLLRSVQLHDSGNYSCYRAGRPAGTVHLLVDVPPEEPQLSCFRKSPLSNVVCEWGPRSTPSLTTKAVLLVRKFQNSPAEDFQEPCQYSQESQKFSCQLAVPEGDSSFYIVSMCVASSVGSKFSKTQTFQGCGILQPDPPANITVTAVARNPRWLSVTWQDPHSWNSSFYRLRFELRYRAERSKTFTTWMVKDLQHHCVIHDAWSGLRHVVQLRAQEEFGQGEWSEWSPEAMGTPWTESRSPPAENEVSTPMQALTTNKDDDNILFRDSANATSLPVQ

B1: GpH7-G1d/GpL16-k0 (antibody, human IgG1)
heavy: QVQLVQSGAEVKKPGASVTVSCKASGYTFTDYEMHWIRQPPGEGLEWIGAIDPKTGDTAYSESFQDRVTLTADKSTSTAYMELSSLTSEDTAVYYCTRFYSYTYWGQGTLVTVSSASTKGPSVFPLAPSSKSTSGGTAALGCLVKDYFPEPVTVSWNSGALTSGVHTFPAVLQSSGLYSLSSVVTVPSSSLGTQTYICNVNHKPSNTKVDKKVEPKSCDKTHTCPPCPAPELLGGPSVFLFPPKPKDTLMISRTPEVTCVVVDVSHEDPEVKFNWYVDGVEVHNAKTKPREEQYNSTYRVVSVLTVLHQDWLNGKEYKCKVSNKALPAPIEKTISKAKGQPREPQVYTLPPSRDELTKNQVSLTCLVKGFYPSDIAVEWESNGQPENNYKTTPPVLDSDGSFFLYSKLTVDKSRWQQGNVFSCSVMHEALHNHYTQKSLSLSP
light: DIVMTQSPLSLPVTPGEPASISCQASESLVHSNRNTYLHWYLQKPGQSPQLLIYKVSNRFSGVPDRFSGSGSGTDFTLKISRVEAEDVGVYYCSQNTHVPPTFGQGTKVEIE
notes: anti-glypican-3 antibody; G1d is IgG1 with Gly and Lys deleted from the C terminus; copies: 2 + 2
B2: GpH7-B3/GpL16-k0 (antibody, human IgG1)
heavy: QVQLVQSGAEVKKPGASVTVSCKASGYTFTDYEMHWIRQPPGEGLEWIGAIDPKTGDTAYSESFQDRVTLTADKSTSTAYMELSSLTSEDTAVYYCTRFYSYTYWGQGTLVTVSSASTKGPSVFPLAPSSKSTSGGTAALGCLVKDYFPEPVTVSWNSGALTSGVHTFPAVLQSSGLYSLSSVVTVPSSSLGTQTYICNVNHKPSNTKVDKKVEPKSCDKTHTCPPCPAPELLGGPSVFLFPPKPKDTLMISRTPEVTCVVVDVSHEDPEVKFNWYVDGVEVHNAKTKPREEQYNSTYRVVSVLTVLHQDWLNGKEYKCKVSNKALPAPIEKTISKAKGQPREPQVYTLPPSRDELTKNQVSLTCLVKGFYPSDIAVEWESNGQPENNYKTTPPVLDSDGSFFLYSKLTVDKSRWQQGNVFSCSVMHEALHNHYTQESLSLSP
light: B1 light
notes: anti-glypican-3 antibody, constant region G1d with K439E; copies: 2 + 2
B3: IL6R-G1d/IL6R-L (antibody, human IgG1)
heavy: not shown
light: DIQMTQSPSSLSASVGDRVTITCRASQDISSYLNWYQQKPGKAPKLLIYYTSRLHSGVPSRFSGSGSGTDFTFTISSLQPEDIATYYCQQGNTLPYTFGQGTKVEIK
notes: anti-human IL-6 receptor, G1d constant region; copies: 2 + 2
B4: IL6R-G1d_v1/IL6R-L (antibody, human IgG1)
heavy: not shown
light: B3 light
notes: P238D (EU numbering) in IL6R-G1d; also called IgG1-v1; copies: 2 + 2
B5: IL6R-G1d_v3/IL6R-L (antibody, human IgG1)
heavy: not shown
light: B3 light
notes: S267E/L328F (EU numbering) in IL6R-G1d; also called IgG1-v3; copies: 2 + 2
B6: IL6R-G1d_v2/IL6R-L (antibody, human IgG1)
heavy: not shown
light: B3 light
notes: L328E (EU numbering) in IL6R-G1d; also called IgG1-v2; copies: 2 + 2
B7: 6RL#9-IgG1 (antibody, V domains shown, not shown: a dimerising Fc or GST)
VH: QVQLVQSGAEVKKPGASVKVSCKASGYTFTSYYMHWVRQAPGQGLEWMGIINPSGGSTSYAQKFQGRVTMTRDTSTSTVYMELSSLRSEDTAVYYCARDDPGGGEYYFDYWGQGTLVTVSS
VL: QSVLTQPPSVSGAPGQRVTISCTGSRSNMGAGYDVHWYQLLPGAAPKLLISHNTHRPSGVPDRFSGSKSGASASLAITGLQAEDEADYYCQSHDSSLSAVVFGGGTKLTVLS
B8: FH4-IgG1 (antibody, V domains shown)
VH: QVQLVQSGAEVKKPGSSVKVSCKASGGTFSSYAISWVRQAPGQGLEWMGGIIPIFGTANYAQKFQGRVTITADESTSTAYMELSSLRSEDTAVYYCARERDYYDSSGYYDAFDIWGQGTMVTVSS
VL: ETTVTQSPSFLSASVGDRVTITCITTTDIDDDMNWFQQEPGKAPKLLISEGNILRPGVPSRFSSSGYGTDFTLTISKLQPEDFATYYCLQSDNLPFTFGQGTKLEIKR
B9: VH3/L(WT)-IgG1-F763 (antibody, name in EU numbering)
heavy: QVQLQESGPGLVKPSETLSLTCAVSGHSISHDHAWSWVRQPPGEGLEWIGFISYSGITNYNPSLQGRVTISRDNSKNTLYLQMNSLRAEDTAVYYCARSLARTTAMDYWGEGTLVTVSSASTKGPSVFPLAPSSKSTSGGTAALGCLVKDYFPEPVTVSWNSGALTSGVHTFPAVLQSSGLYSLSSVVTVPSSSLGTQTYICNVNHKPSNTKVDKKVEPKSCDKTHTCPPCPAPELRGGPKVFLFPPKPKDTLYISRTPEVTCVVVDVSHEDPEVKFNWYVDGVEVHEAKTKPREEQYNSTYRVVSVLQVLHADWLNGKEYKCKVSNKALPAPIEKTISKAKGQPREPQVYTLPPSRDELTKNQVSLTCLVKGFYPSDIAVEWESNGQPENNYKTTPPVLDSDGSFFLYSKLTVDKSRWQQGNVFSCSVMHEALHYHYTQKSLSLSP
light: not shown
notes: copies: 2 + 2

Columns and labels:
[1] = biological target: T8, human FcγRIa (human, UniProt P12314 16-292, limits assumed); test: SPR, antibody captured on the chip, FcγR as analyte, HBS-EP+, 25 C; amount bound corrected for captured antibody
T8 construct: also called hFcgRIa; hFcgRI

[2] = biological target: T1, human FcγRIIa(H); test: as above
[3] = biological target: T2, human FcγRIIb; test: as above
[4] = biological target: T3, human FcγRIIa(R); test: as above
[5] = biological target: T4, human FcγRIIa(R); test: SPR, antibody captured by Protein A, FcγR analyte, 1:1 Langmuir fit
[6] = biological target: T9, human FcγRIa (human, UniProt P12314 16-292, limits assumed); test: as above
T9 construct: also called FcgRIa; hFcgRIa

[7] = biological target: T5, human FcγRIIa(H); test: as above
[8] = biological target: T6, human FcγRIIb; test: as above
[9] = biological target: T5, human FcγRIIa(H); test: SPR, antibody captured by Protein A, FcγR analyte; * calculated with Equation 5
[10] = biological target: T4, human FcγRIIa(R); test: SPR
[11] = biological target: T9, human FcγRIa; test: SPR
[12] = biological target: T5, human FcγRIIa(H); test: SPR
[13] = biological target: T6, human FcγRIIb; test: SPR
[14] = biological target: T7, soluble human IL-6 receptor; test: Biacore SPR, 3 uM CaCl2, pH 7.4, 37C, estimated
[15] = biological target: T7, soluble human IL-6 receptor; test: Biacore SPR, 3 uM CaCl2, pH 7.4, 37C, estimated from Req and Rmax
[16] = biological target: T8, human FcγRIa; test: SPR, antibody captured by Protein L, human FcγR as analyte, pH 7.4, 25 C
[17] = biological target: T1, human FcγRIIa(H); test: as above
[18] = biological target: T2, human FcγRIIb; test: as above
[19] = biological target: T3, human FcγRIIa(R); test: as above
[20] = biological target: T10, human FcRn (soluble human FcRn complexed with β2-microglobulin) (human, UniProt P61769 21-119, limits assumed); test: SPR, antibody captured by Protein L, human FcRn as analyte, pH 7.0, 25 C
T10 construct: also called hFcRn
T10 sequence (chain, as listed by the source limits assumed, chain 1 of 2): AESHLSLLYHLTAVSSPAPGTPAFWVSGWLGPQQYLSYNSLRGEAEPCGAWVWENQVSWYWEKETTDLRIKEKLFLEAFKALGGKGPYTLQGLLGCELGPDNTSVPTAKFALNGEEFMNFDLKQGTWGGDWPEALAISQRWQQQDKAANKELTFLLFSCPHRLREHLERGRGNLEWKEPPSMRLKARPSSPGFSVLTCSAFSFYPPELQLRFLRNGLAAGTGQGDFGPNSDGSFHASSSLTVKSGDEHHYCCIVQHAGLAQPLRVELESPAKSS
T10 sequence (P61769 21-119 limits assumed, chain 2 of 2): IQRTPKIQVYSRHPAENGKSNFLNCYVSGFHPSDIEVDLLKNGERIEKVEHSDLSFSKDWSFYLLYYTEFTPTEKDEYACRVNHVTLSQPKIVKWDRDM

Binder | Kd [5] [nM] | Kd [6] [nM] | Kd [8] [nM] | relative KD (KD of IgG1/KD of variant) [10] [fold] | relative KD (KD of IgG1/KD of variant) [11] [fold] | relative KD (KD of IgG1/KD of variant) [12] [fold] | relative KD (KD of IgG1/KD of variant) [13] [fold] | other results
B1 |  |  |  |  |  |  |  | relative binding activity (GpH7-G1d/GpL16-k0 = 100) [1]: 100; relative binding activity (GpH7-G1d/GpL16-k0 = 100) [2]: 100; relative binding activity (GpH7-G1d/GpL16-k0 = 100) [3]: 100; relative binding activity (GpH7-G1d/GpL16-k0 = 100) [4]: 100
B2 |  |  |  |  |  |  |  | relative binding activity (GpH7-G1d/GpL16-k0 = 100) [1]: 109; relative binding activity (GpH7-G1d/GpL16-k0 = 100) [2]: 92; relative binding activity (GpH7-G1d/GpL16-k0 = 100) [3]: 88; relative binding activity (GpH7-G1d/GpL16-k0 = 100) [4]: 94
B3 | 1200 | 0.34 | 5300 |  |  |  |  | Kd [7]: 770 nM
B4 | 12000 | 7.3 | 1100 | 0.1 | 0.047 | 0.014 | 4.8 | Kd [9]: 56000 nM
B5 | 2.3 | 0.19 | 13 | 522 | 1.8 | 0.51 | 408 | Kd [7]: 1500 nM
B6 | 2900 | 0.46 | 2300 | 0.41 | 0.74 | 0.064 | 2.3 | Kd [9]: 12000 nM
B7 |  |  |  |  |  |  |  | Kd [14]: ≥ 31000 nM; Kd [15]: ~31000 nM
B8 |  |  |  |  |  |  |  | Kd [14]: ≥ 34000 nM; Kd [15]: ~34000 nM
B9 |  |  |  |  |  |  |  | BINDING AMOUNT (RU) [16]: -0.4 RU; BINDING AMOUNT (RU) [17]: -0.8 RU; BINDING AMOUNT (RU) [18]: -1 RU; BINDING AMOUNT (RU) [19]: -1 RU; Kd [20]: 35 nM

— US20200199241A1 (Chugai, published 2020)
